Reference: PMC11784077

Key:
Experiment in all cases: non-reducing gel electrophoresis with western blot (trimerization assay); BmN cells expressing GP64 or CARC mutants harvested, lysed in PBS (pH 7.4), separated on 10% nonreducing polyacrylamide gel, blotted with anti-GP64 (AcV5)
[1] = target: BmNPV GP64 (wild type, signal peptide retained) (Bombyx mori nucleopolyhedrovirus (BmNPV)) (UniProt P41722)
[2] = target: BmNPV GP64 F235A (CARC5 mutant) (Bombyx mori nucleopolyhedrovirus (BmNPV)) (UniProt P41722)
[3] = target: BmNPV GP64 W154A (CARC2 mutant) (Bombyx mori nucleopolyhedrovirus (BmNPV)) (UniProt P41722)
[4] = target: BmNPV GP64 W178A (CARC3 mutant) (Bombyx mori nucleopolyhedrovirus (BmNPV)) (UniProt P41722)
[5] = target: BmNPV GP64 W299A (CARC6 mutant) (Bombyx mori nucleopolyhedrovirus (BmNPV)) (UniProt P41722)
[6] = target: BmNPV GP64 Y49A (CARC1 mutant) (Bombyx mori nucleopolyhedrovirus (BmNPV)) (UniProt P41722)
[7] = target: BmNPV GP64 Y188A (CARC4 mutant) (Bombyx mori nucleopolyhedrovirus (BmNPV)) (UniProt P41722)

## BmNPV GP64 (wild type, signal peptide retained) (from UniProt P41722 1-37) (natural protein)
[1]
  stoichiometry N: 3

## BmNPV GP64 F235A (CARC5 mutant) (from UniProt P41722 1-37) (natural protein)
[2]
  stoichiometry N: 3

## BmNPV GP64 W154A (CARC2 mutant) (from UniProt P41722 1-37) (natural protein)
[3]
  stoichiometry N: 3

## BmNPV GP64 W178A (CARC3 mutant) (from UniProt P41722 1-37) (natural protein)
[4]
  stoichiometry N: 3

## BmNPV GP64 W299A (CARC6 mutant) (from UniProt P41722 1-37) (natural protein)
[5]
  stoichiometry N: 3

## BmNPV GP64 Y49A (CARC1 mutant) (from UniProt P41722 1-37) (natural protein)
[6]
  stoichiometry N: 3

## BmNPV GP64 Y188A (CARC4 mutant) (from UniProt P41722 1-37) (natural protein)
[7]
  stoichiometry N: 3
